The record followed here is the supplement of paper PMC10567573.

To fix the notation:
B1: ADAMTS4 (parent)
chain: SFRKFRYGYNNVVTIPAGATHILV
B2: PRPH (parent)
chain: RTFGPPPSLSPGAFSYSSSSRFSS
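Note: lentivirally expressed fusions sorted by FACS into six bins by GFP to DsRed ratio, PSI derived from sequencing read proportions per bin multiplied by bin number.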

The first data set covers variants of B1. Briefly: protein stability index of a GFP-peptide fusion (GPS, HEK-293T) (PSI 1-6); higher = more stable. As to conditions: c terminus: a fixed tail appended.
Take SFRKFRYGYNNVVTIPAGATNILV [H21N]: the protein stability index turned out to be 2.65.

With SFRKFRYGYNNVVTIPAGATIILV [H21I], the protein stability index amounted to 2.4.

As to SFRKFRYGYNNVVTIPAGATFILV [H21F], the protein stability index amounted to 3.18.

Regarding SFRKFRYGYNNVVTIPAGATMILV [H21M], the protein stability index was 2.12.

As to SFRKFRYGYNNVVTIPAGATAILV [H21A], the protein stability index turned out to be 1.3.

Consider SFRKFRYGYNNVVTIPAGATYILV [H21Y], for which the protein stability index was determined as 3.3.

Take SFRKFRYGYNNVVTIPAGATCILV [H21C]: the protein stability index worked out at 2.43.

With SFRKFRYGYNNVVTIPAGATPILV [H21P], the protein stability index worked out at 1.28.

Another data set covers variants of B2. The description is as above. The conditions noted are these: c terminus: a fixed tail appended.
With RTFQPPPSLSPGAFSYSSSSRFSS [G4Q], the protein stability index is 3.26.

As for RTFDPPPSLSPGAFSYSSSSRFSS [G4D], the protein stability index was 3.36.

As to RTFSPPPSLSPGAFSYSSSSRFSS [G4S], the protein stability index came to 3.21.

Regarding RTFRPPPSLSPGAFSYSSSSRFSS [G4R], the protein stability index was 3.1.

On to RTFWPPPSLSPGAFSYSSSSRFSS [G4W], for which the protein stability index was found to be 2.22.

RTFLPPPSLSPGAFSYSSSSRFSS [G4L]: the protein stability index turned out to be 2.42.

With RTFHPPPSLSPGAFSYSSSSRFSS [G4H], the protein stability index worked out at 3.2.

On to RTFIPPPSLSPGAFSYSSSSRFSS [G4I], for which the protein stability index is 2.55.

As for RTFVPPPSLSPGAFSYSSSSRFSS [G4V], the protein stability index stood at 2.37.

With RTFKPPPSLSPGAFSYSSSSRFSS [G4K], the protein stability index came to 2.26.

In the case of RTFMPPPSLSPGAFSYSSSSRFSS [G4M], the protein stability index is 3.08.

RTFEPPPSLSPGAFSYSSSSRFSS [G4E]: the protein stability index is 3.43.

For RTFCPPPSLSPGAFSYSSSSRFSS [G4C], the protein stability index came out at 2.9.

In the case of RTFFPPPSLSPGAFSYSSSSRFSS [G4F], the protein stability index was determined as 3.06.

With RTFNPPPSLSPGAFSYSSSSRFSS [G4N], the protein stability index came out at 3.12.

Turning to RCFGPPPSLSPGAFSYSSSSRFSS [T2C], the protein stability index came out at 2.02.

RFFGPPPSLSPGAFSYSSSSRFSS [T2F]: the protein stability index amounted to 2.46.

With RKFGPPPSLSPGAFSYSSSSRFSS [T2K], the protein stability index is 2.49.

On to RYFGPPPSLSPGAFSYSSSSRFSS [T2Y], for which the protein stability index is 2.31.

For the variant RPFGPPPSLSPGAFSYSSSSRFSS [T2P], the protein stability index is 3.08.

RNFGPPPSLSPGAFSYSSSSRFSS [T2N]: the protein stability index is 2.92.

Regarding RHFGPPPSLSPGAFSYSSSSRFSS [T2H], the protein stability index is 3.17.

With RDFGPPPSLSPGAFSYSSSSRFSS [T2D], the protein stability index came to 3.21.

Turning to RSFGPPPSLSPGAFSYSSSSRFSS [T2S], the protein stability index stood at 3.73.

For RLFGPPPSLSPGAFSYSSSSRFSS [T2L], the protein stability index worked out at 2.43.

Turning to RAFGPPPSLSPGAFSYSSSSRFSS [T2A], the protein stability index is 2.95.

Take RMFGPPPSLSPGAFSYSSSSRFSS [T2M]: the protein stability index was 2.52.

Regarding RQFGPPPSLSPGAFSYSSSSRFSS [T2Q], the protein stability index came to 2.92.

Take RGFGPPPSLSPGAFSYSSSSRFSS [T2G]: the protein stability index came out at 2.89.

For RVFGPPPSLSPGAFSYSSSSRFSS [T2V], the protein stability index came to 2.23.

Consider RIFGPPPSLSPGAFSYSSSSRFSS [T2I], for which the protein stability index was determined as 2.97.

As to RTFGMPPSLSPGAFSYSSSSRFSS [P5M], the protein stability index stood at 2.6.

On to RTFGTPPSLSPGAFSYSSSSRFSS [P5T], for which the protein stability index worked out at 3.29.

Turning to RTFGRPPSLSPGAFSYSSSSRFSS [P5R], the protein stability index was determined as 2.71.

Consider RTFGIPPSLSPGAFSYSSSSRFSS [P5I], for which the protein stability index is 2.5.

In the case of RTFGCPPSLSPGAFSYSSSSRFSS [P5C], the protein stability index was 2.64.

For the variant RTFGAPPSLSPGAFSYSSSSRFSS [P5A], the protein stability index is 2.76.

In the case of RTFGFPPSLSPGAFSYSSSSRFSS [P5F], the protein stability index came to 2.61.

For RTFGNPPSLSPGAFSYSSSSRFSS [P5N], the protein stability index was 3.55.

On to RTFGYPPSLSPGAFSYSSSSRFSS [P5Y], for which the protein stability index stood at 2.65.

For the variant RTFGLPPSLSPGAFSYSSSSRFSS [P5L], the protein stability index amounted to 2.07.

For the variant RTFGWPPSLSPGAFSYSSSSRFSS [P5W], the protein stability index worked out at 2.21.

RTFGSPPSLSPGAFSYSSSSRFSS [P5S]: the protein stability index was 2.99.

RTFGKPPSLSPGAFSYSSSSRFSS [P5K]: the protein stability index is 2.99.

For the variant RTFGHPPSLSPGAFSYSSSSRFSS [P5H], the protein stability index was 2.81.

On to RTFGDPPSLSPGAFSYSSSSRFSS [P5D], for which the protein stability index is 3.35.

Consider RTFGQPPSLSPGAFSYSSSSRFSS [P5Q], for which the protein stability index was found to be 2.6.

As to RTFGEPPSLSPGAFSYSSSSRFSS [P5E], the protein stability index turned out to be 3.23.

Regarding RTFGGPPSLSPGAFSYSSSSRFSS [P5G], the protein stability index was determined as 2.84.

On to RTFGVPPSLSPGAFSYSSSSRFSS [P5V], for which the protein stability index came to 2.89.

In the case of RTMGPPPSLSPGAFSYSSSSRFSS [F3M], the protein stability index was determined as 3.75.

On to RTVGPPPSLSPGAFSYSSSSRFSS [F3V], for which the protein stability index is 3.31.

Regarding RTWGPPPSLSPGAFSYSSSSRFSS [F3W], the protein stability index came to 3.19.

RTCGPPPSLSPGAFSYSSSSRFSS [F3C]: the protein stability index was 2.82.

Take RTKGPPPSLSPGAFSYSSSSRFSS [F3K]: the protein stability index was determined as 3.38.

Consider RTEGPPPSLSPGAFSYSSSSRFSS [F3E], for which the protein stability index came to 3.72.

As to RTTGPPPSLSPGAFSYSSSSRFSS [F3T], the protein stability index stood at 3.54.

Turning to RTLGPPPSLSPGAFSYSSSSRFSS [F3L], the protein stability index was 4.11.

Regarding RTGGPPPSLSPGAFSYSSSSRFSS [F3G], the protein stability index came out at 3.13.

On to RTNGPPPSLSPGAFSYSSSSRFSS [F3N], for which the protein stability index came to 3.38.

As to RTRGPPPSLSPGAFSYSSSSRFSS [F3R], the protein stability index stood at 3.41.

Turning to RTAGPPPSLSPGAFSYSSSSRFSS [F3A], the protein stability index amounted to 3.33.

Regarding RTSGPPPSLSPGAFSYSSSSRFSS [F3S], the protein stability index is 3.6.

As to RTIGPPPSLSPGAFSYSSSSRFSS [F3I], the protein stability index turned out to be 3.46.

Regarding RTYGPPPSLSPGAFSYSSSSRFSS [F3Y], the protein stability index came out at 3.16.

With RTDGPPPSLSPGAFSYSSSSRFSS [F3D], the protein stability index was 4.09.

Take STFGPPPSLSPGAFSYSSSSRFSS [R1S]: the protein stability index amounted to 3.01.

For the variant DTFGPPPSLSPGAFSYSSSSRFSS [R1D], the protein stability index came to 3.29.

For the variant KTFGPPPSLSPGAFSYSSSSRFSS [R1K], the protein stability index stood at 2.74.

As to GTFGPPPSLSPGAFSYSSSSRFSS [R1G], the protein stability index was 3.25.

Consider CTFGPPPSLSPGAFSYSSSSRFSS [R1C], for which the protein stability index is 2.59.

On to WTFGPPPSLSPGAFSYSSSSRFSS [R1W], for which the protein stability index worked out at 2.81.

In the case of MTFGPPPSLSPGAFSYSSSSRFSS [R1M], the protein stability index was 2.29.

VTFGPPPSLSPGAFSYSSSSRFSS [R1V]: the protein stability index came to 1.97.

On to HTFGPPPSLSPGAFSYSSSSRFSS [R1H], for which the protein stability index was 3.24.

For FTFGPPPSLSPGAFSYSSSSRFSS [R1F], the protein stability index was found to be 2.52.

In the case of TTFGPPPSLSPGAFSYSSSSRFSS [R1T], the protein stability index is 2.63.

Take ITFGPPPSLSPGAFSYSSSSRFSS [R1I]: the protein stability index was 2.41.

On to ATFGPPPSLSPGAFSYSSSSRFSS [R1A], for which the protein stability index is 3.18.

In the case of QTFGPPPSLSPGAFSYSSSSRFSS [R1Q], the protein stability index amounted to 3.62.

Consider YTFGPPPSLSPGAFSYSSSSRFSS [R1Y], for which the protein stability index worked out at 2.4.

As for ETFGPPPSLSPGAFSYSSSSRFSS [R1E], the protein stability index is 3.09.

Take NTFGPPPSLSPGAFSYSSSSRFSS [R1N]: the protein stability index is 3.7.

Consider RTFGPAPSLSPGAFSYSSSSRFSS [P6A], for which the protein stability index was found to be 2.76.

On to RTFGPDPSLSPGAFSYSSSSRFSS [P6D], for which the protein stability index was 2.86.

For RTFGPCPSLSPGAFSYSSSSRFSS [P6C], the protein stability index was determined as 2.09.
